US20240247055A1

Biological target: low-density lipoprotein (LDL) receptor-related protein 1 (LRP1) (human) (UniProt Q07954)
Test: cell-based or functional assay

Sequence of UniProt Q07954 (Q07954 20-4544): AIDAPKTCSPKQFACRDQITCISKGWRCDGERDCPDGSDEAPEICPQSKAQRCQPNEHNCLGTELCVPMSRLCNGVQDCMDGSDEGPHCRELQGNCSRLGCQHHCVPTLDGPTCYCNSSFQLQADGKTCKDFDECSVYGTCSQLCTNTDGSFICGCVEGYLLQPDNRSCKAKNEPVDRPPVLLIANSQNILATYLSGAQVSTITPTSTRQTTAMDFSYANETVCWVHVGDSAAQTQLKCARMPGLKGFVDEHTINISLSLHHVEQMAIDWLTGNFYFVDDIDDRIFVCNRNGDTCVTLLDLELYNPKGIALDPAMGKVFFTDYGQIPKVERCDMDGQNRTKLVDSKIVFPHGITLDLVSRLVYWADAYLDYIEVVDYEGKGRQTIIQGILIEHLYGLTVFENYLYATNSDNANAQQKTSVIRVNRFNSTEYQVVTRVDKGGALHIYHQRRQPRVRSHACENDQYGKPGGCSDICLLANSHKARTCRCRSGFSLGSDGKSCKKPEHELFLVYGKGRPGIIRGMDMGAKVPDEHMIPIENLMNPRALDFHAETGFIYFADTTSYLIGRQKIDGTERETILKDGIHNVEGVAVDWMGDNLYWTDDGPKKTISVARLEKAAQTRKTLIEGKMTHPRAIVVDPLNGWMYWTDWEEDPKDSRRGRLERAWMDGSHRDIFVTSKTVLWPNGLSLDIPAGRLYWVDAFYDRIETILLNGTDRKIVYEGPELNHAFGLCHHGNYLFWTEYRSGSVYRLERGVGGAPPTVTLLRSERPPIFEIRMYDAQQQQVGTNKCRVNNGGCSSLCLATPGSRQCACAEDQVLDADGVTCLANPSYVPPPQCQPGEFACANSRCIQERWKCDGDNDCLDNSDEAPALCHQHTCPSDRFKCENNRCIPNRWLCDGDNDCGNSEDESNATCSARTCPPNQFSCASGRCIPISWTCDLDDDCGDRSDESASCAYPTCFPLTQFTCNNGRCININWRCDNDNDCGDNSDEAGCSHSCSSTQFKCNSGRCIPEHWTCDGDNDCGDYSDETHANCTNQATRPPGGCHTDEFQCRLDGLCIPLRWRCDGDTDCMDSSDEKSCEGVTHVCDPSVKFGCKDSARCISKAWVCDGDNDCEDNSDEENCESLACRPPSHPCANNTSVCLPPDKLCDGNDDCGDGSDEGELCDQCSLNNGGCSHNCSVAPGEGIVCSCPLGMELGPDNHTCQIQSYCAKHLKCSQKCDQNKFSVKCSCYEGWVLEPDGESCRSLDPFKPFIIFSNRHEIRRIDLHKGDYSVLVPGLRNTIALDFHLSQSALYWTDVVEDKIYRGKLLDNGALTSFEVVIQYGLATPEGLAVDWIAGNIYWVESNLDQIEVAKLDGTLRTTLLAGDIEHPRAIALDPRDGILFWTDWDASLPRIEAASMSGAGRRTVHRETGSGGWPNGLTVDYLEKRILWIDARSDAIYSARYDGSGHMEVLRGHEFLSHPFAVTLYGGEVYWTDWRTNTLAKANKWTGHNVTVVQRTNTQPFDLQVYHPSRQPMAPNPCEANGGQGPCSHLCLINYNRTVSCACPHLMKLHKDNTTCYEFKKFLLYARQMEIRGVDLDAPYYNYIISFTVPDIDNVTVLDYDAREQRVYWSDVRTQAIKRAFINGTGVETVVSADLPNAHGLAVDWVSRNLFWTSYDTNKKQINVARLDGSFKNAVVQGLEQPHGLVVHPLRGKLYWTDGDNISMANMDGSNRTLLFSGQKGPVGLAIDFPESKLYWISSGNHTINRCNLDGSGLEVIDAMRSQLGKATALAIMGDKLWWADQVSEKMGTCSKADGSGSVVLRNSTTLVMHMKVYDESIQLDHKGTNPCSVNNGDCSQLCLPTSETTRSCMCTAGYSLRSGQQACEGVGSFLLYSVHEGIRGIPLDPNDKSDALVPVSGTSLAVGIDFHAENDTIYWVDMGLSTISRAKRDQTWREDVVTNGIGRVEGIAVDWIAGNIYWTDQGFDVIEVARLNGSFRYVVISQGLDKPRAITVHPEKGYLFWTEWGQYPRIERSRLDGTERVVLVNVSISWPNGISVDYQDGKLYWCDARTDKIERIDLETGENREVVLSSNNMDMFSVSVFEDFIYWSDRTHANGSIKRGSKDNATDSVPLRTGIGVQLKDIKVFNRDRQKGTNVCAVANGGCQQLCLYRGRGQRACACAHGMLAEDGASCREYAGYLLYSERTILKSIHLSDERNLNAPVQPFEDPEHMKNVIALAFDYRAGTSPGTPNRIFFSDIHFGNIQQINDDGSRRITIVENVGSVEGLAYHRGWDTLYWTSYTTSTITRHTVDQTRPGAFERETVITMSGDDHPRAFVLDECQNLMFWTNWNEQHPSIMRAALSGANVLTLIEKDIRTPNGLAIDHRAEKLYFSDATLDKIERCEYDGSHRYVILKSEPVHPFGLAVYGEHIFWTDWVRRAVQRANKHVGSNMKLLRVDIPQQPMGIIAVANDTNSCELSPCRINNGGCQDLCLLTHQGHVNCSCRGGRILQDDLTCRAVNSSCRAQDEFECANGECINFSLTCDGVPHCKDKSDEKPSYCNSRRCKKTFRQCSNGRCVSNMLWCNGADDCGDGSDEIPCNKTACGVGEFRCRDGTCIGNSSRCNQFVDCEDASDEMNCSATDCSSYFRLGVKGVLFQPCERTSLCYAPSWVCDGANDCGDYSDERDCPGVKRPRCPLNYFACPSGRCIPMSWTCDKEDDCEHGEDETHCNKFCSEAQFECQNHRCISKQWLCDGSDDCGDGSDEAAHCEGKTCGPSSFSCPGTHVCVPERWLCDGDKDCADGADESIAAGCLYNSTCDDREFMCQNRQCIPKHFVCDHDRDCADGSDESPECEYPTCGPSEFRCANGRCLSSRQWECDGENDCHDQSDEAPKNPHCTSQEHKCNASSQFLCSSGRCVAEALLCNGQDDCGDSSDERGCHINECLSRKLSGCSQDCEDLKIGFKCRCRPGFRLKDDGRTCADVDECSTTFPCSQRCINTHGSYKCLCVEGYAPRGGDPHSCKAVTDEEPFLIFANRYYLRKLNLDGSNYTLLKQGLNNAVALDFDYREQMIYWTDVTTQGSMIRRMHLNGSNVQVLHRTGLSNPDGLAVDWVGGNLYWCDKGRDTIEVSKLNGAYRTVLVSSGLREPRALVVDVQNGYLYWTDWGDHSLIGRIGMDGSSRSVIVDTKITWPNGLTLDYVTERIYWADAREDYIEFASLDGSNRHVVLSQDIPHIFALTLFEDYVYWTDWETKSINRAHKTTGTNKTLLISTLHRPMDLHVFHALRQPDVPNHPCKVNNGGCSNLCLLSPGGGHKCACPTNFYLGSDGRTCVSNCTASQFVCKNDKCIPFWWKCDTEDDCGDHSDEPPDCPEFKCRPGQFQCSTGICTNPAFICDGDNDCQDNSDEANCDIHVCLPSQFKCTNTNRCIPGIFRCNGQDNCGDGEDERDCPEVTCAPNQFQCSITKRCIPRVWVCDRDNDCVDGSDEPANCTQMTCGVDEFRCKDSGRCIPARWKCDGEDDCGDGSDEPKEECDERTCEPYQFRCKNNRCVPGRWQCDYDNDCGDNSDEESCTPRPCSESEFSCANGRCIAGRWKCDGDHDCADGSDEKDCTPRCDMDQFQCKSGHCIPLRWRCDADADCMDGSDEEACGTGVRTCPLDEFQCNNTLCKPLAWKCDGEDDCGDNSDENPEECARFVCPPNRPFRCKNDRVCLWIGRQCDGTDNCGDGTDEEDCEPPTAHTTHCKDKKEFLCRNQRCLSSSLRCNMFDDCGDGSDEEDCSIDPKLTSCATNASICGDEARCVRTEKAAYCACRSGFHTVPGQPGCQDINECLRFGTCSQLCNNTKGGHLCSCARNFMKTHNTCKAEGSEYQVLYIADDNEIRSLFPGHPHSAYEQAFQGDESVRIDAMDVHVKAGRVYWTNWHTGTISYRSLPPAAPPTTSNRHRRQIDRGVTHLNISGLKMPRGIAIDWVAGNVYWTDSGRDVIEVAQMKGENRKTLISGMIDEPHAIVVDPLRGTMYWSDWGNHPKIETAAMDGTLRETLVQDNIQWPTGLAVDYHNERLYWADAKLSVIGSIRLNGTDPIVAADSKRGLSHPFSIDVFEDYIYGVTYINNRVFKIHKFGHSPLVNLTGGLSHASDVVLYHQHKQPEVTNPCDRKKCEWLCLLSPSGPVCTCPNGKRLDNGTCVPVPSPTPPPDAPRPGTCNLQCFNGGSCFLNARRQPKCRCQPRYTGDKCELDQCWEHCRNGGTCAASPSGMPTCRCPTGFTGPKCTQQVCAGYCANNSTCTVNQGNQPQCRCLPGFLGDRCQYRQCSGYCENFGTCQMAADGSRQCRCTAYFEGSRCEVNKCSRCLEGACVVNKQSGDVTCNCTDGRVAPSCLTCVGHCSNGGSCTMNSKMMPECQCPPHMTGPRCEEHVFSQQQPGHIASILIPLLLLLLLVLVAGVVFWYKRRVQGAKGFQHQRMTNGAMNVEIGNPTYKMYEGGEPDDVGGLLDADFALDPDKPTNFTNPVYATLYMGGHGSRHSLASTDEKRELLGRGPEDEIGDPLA

inhibition of uptake of K18 tau in WT H4 cells (IC50): 9.6 nM
inhibition of uptake of full-length tau in WT H4 cells (IC50): 4.9 nM
Substance: receptor-associated protein (RAP) (from UniProt P30533 35-357) (ligand)
